Key:
[1] = target: gD-tagged human PSCA expressed on transfected cells (Herpes Simplex virus; human, UniProt O43653 12-91)
murine PSCA (mPSCA) = target: T1, murine PSCA (mPSCA) (murine, UniProt P57096 21-95); test: direct ELISA, antigen coated at 1 µg/ml
T1 construct: also called muPSCA; his Mu PSCA - E. coli
T1 sequence (looked up): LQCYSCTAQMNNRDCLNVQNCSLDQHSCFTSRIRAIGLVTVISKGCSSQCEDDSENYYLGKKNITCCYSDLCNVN

B1: anti-PSCA monoclonal antibody 5F2.4H4.1E3 (antibody, V domains shown)
VH: QVQVQQPGAELVKPGAPVKLSCKASGYTFTNYWLNWVKQRPGRGLEWIGRIDPSDSEIHYDQKFKDKATLTVDKSSSTAYIQLSSLTSEDSAVYYCALTGIYAMAYWGQGTSVTVSS
VL: DIVMTQAAPSVPVTPGESVSISCRSSKSLLHSNGNTYLYWFLQRPGQSPQLLIYRMSNLASGVPDRFSGSGSGTAFTLRISRVEAEDVGVYYCLQHLEYPYTFGGGTKLELKR
**Q.** With B1 as the binder, how does the IC50 [1] read?
**A.** The IC50 was 13 nM.

B2: anti-PSCA monoclonal antibody 6B8.1D7.2B3 (antibody, V domains shown)
VH: EVQLQQSGPDLEKPGASVKISCKPSGNSFTGYYIHWVKQSHGKSLEWIGRVDPNNGFTSYNQKFKGKAILTVDKSSSTAYMELRSLTSEDSAVYYCVGNFFDSWGQGTTLTVSS
VL: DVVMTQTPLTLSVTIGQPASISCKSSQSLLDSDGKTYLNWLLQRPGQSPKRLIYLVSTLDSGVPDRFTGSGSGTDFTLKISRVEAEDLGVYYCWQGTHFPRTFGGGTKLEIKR
notes: also called Asc# 2761; #2761
**Q.** Does B2 bind (murine PSCA (mPSCA))?
**A.** Result: no binding

Reference: patent publication US20050036942A1 (Genentech, published 2005)
